The text below walks through data of the supplement of paper PMC5998384.

Data set [1] relates to HeLa Kyoto. The experiment in a line: solubility in G1/S (NP-40 vs SDS abundance) (log2 ratio); higher = more soluble. Particulars: cell cycle stage: G1/S.
Data set [2] relates to HeLa Kyoto. The experiment in a line: melting temperature (median over replicates), in situ; higher = more thermally stable.
Data set [3] has as its system HeLa Kyoto. The experiment in a line: thermal stability score vs G1/S (z-score of summed log2 fold changes over temperatures); higher = more thermally stable than in G1/S.
Data set [4] concerns HeLa Kyoto. Kind of data set: solubility change mitosis vs G1/S (difference of NP-40 vs SDS log2 ratios) (log2 ratio difference); higher = more soluble in mitosis.
Where [5] appears, read: cell cycle stage: early G1 (4.5 h after nocodazole release).
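Throughout, for melting temperature (median over replicates), in situ: HeLa Kyoto cells synchronized by double thymidine or nocodazole block, proteins quantified by TMT10plex mass spectrometry, three independent biological replicates.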
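Throughout, for solubility change mitosis vs G1/S (difference of NP-40 vs SDS log2 ratios): synchronized HeLa Kyoto cells (double thymidine block for G1/S, nocodazole release for mitosis), protein amounts in NP-40 versus SDS lysates quantified by mass spectrometry, three biological replicates.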
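Throughout, for solubility in G1/S (NP-40 vs SDS abundance): HeLa Kyoto cells arrested at G1/S by double thymidine block, proteins quantified by TMT10plex mass spectrometry in mild NP-40 versus SDS extracts, three biological replicates.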
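Throughout, for thermal stability score vs G1/S (z-score of summed log2 fold changes over temperatures): synchronized HeLa Kyoto cells, proteins quantified by TMT10plex mass spectrometry, three biological replicates, mitosis taken 0.5 h after nocodazole release, G1/S directly after double thymidine block.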

Turning to “MAAAAGPGAALSPRPCDSDPATPGAQSPKDDNEDNSNDGTQPSKRRRMGSGDSSRSCETSSQDLGFSYYPAENLIEYKWPPDETGEYYMLQEQVSEYLGVTSFKRKYPDLERRDLSHKEKLYLRELNVITETQCTLGLTALRSDEVIDLMIKEYPAKHAEYSVILQEKERQRITDHYKEYSQMQQQNTQKVEASKVPEYIKKAAKKAAEFNSNLNRERMEERRAYFDLQTHVIQVPQGKYKVLPTERTKVSSYPVALIPGQFQEYYKRYSPDELRYLPLNTALYEPPLDPELPALDSDGDSDDGEDGRGDEKRKNKGTSDSSSGNVSEGESPPDSQEDSFQGRQKSKDKAATPRKDGPKRSVLSKSVPGYKPKVIPNAICGICLKGKESNKKGKAESLIHCSQCENSGHPSCLDMTMELVSMIKTYPWQCMECKTCIICGQPHHEEEMMFCDMCDRGYHTFCVGLGAIPSGRWICDCCQRAPPTPRKVGRRGKNSKEG [PHF10]”, in the data set with HeLa Kyoto [1], the “solubility in G1/S (log2)” value is 0.128. For the same sequence, the melting temperature in the data set with HeLa Kyoto [2] (cell cycle stage: G1/S) came to 49.5 °C; in the data set with HeLa Kyoto [2] (cell cycle stage: mitosis) it was 49.4 °C. For the same sequence, the thermal stability score in the data set with HeLa Kyoto [3] (setting [5]) turned out to be 1.13; in the data set with HeLa Kyoto [3] (cell cycle stage: mitosis) it was 2.91. The “solubility change mitosis (log2)” value in the data set on HeLa Kyoto [4] was determined as 0.132.
For “MAAAAKPNNLSLVVHGPGDLRLENYPIPEPGPNEVLLRMHSVGICGSDVHYWEYGRIGNFIVKKPMVLGHEASGTVEKVGSSVKHLKPGDRVAIEPGAPRENDEFCKMGRYNLSPSIFFCATPPDDGNLCRFYKHNAAFCYKLPDNVTFEEGALIEPLSVGIHACRRGGVTLGHKVLVCGAGPIGMVTLLVAKAMGAAQVVVTDLSATRLSKAKEIGADLVLQISKESPQEIARKVEGQLGCKPEVTIECTGAEASIQAGIYATRSGGNLVLVGLGSEMTTVPLLHAAIREVDIKGVFRYCNTWPVAISMLASKSVNVKPLVTHRFPLEKALEAFETFKKGLGLKIMLKCDPSDQNP [SORD]”, the “solubility in G1/S (log2)” value in the data set with HeLa Kyoto [1] worked out at 0.184. The melting temperature in the data set with HeLa Kyoto [2] (cell cycle stage: G1/S) turned out to be 58.1 °C; with HeLa Kyoto [2] (cell cycle stage: mitosis), 57 °C. The thermal stability score was -2.25 in the data set on HeLa Kyoto [3] (setting [5]) and -1.12 in the data set on HeLa Kyoto [3] (cell cycle stage: mitosis). Moreover, the “solubility change mitosis (log2)” value in the data set with HeLa Kyoto [4] is -0.109.
Regarding “MAAAALGSSSGSASPAVAELCQNTPETFLEASKLLLTYADNILRNPNDEKYRSIRIGNTAFSTRLLPVRGAVECLFEMGFEEGETHLIFPKKASVEQLQKIRDLIAIERSSRLDGSNKSHKVKSSQQPAASTQLPTTPSSNPSGLNQHTRNRQGQSSDPPSASTVAADSAILEVLQSNIQHVLVYENPALQEKALACIPVQELKRKSQEKLSRARKLDKGINISDEDFLLLELLHWFKEEFFHWVNNVLCSKCGGQTRSRDRSLLPSDDELKWGAKEVEDHYCDACQFSNRFPRYNNPEKLLETRCGRCGEWANCFTLCCRAVGFEARYVWDYTDHVWTEVYSPSQQRWLHCDACEDVCDKPLLYEIGWGKKLSYVIAFSKDEVVDVTWRYSCKHEEVIARRTKVKEALLRDTINGLNKQRQLFLSENRRKELLQRIIVELVEFISPKTPKPGELGGRISGSVAWRVARGEMGLQRKETLFIPCENEKISKQLHLCYNIVKDRYVRVSNNNQTISGWENGVWKMESIFRKVETDWHMVYLARKEGSSFAYISWKFECGSVGLKVDSISIRTSSQTFQTGTVEWKLRSDTAQVELTGDNSLHSYADFSGATEVILEAELSRGDGDVAWQHTQLFRQSLNDHEENCLEIIIKFSDL [NGLY1]”, the “solubility in G1/S (log2)” value with HeLa Kyoto [1] is -0.124. The melting temperature with HeLa Kyoto [2] (cell cycle stage: G1/S) was 57.5 °C; with HeLa Kyoto [2] (cell cycle stage: mitosis), 50.3 °C. In addition, the thermal stability score in the data set with HeLa Kyoto [3] (setting [5]) is -0.157; in the data set with HeLa Kyoto [3] (cell cycle stage: mitosis), -0.401. Further, the “solubility change mitosis (log2)” value in the data set with HeLa Kyoto [4] is -0.0564.
Take “MAAAAMAAAAGGGAGAARSLSRFRGCLAGALLGDCVGSFYEAHDTVDLTSVLRHVQSLEPDPGTPGSERTEALYYTDDTAMARALVQSLLAKEAFDEVDMAHRFAQEYKKDPDRGYGAGVVTVFKKLLNPKCRDVFEPARAQFNGKGSYGNGGAMRVAGISLAYSSVQDVQKFARLSAQLTHASSLGYNGAILQALAVHLALQGESSSEHFLKQLLGHMEDLEGDAQSVLDARELGMEERPYSSRLKKIGELLDQASVTREEVVSELGNGIAAFESVPTAIYCFLRCMEPDPEIPSAFNSLQRTLIYSISLGGDTDTIATMAGAIAGAYYGMDQVPESWQQSCEGYEETDILAQSLHRVFQKS [ADPRHL2]”: the “solubility in G1/S (log2)” value in the data set with HeLa Kyoto [1] stood at 0.408. The melting temperature in the data set with HeLa Kyoto [2] (cell cycle stage: G1/S) was 53.3 °C; in the data set on HeLa Kyoto [2] (cell cycle stage: mitosis), 52.5 °C. The thermal stability score with HeLa Kyoto [3] (setting [5]) was 0.365; in the data set with HeLa Kyoto [3] (cell cycle stage: mitosis), -0.404. Besides, in the data set on HeLa Kyoto [4], the “solubility change mitosis (log2)” value is -0.105.
